The numbers were not newly measured in PMC9781680, which cites them from elsewhere.

pKd: −log10 of the molar value.

The target of this data set is GLP1 peptide (Homo sapiens) (UniProt P01275).
Chain of UniProt P01275 (P01275 98-127): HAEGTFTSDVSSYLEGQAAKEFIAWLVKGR

Usually pKd stands for the negative decadic logarithm of the Kd, by convention in mol/L. GLP1R (from UniProt P43220): the pKd was 9.30.
